Assay results reported in PMC10540216, “Activity Guided Azide-methyllysine Photo-trapping for Substrate Profiling of Lysine Demethylases” (Journal of the American Chemical Society, 2023).

System: KDM4A-I71AzF
Assay: CASI: photo-crosslinking with HEK293T cell extracts, StrepTactin enrichment and LC-MS/MS proteomics;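 further: lysates from HEK293T cells pretreated with a KDM4 inhibitor to raise proteome methylation, affinity-purified after ±UV, gel-resolved, trypsin-digested, with exclusive unique peptides per protein averaged per condition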
Assay type: binding, human
Settings: sheet "Final results but with 0.01"

| Molecule | Fold change (+UV/-UV) |
| --- | --- |
| HXK1_HUMAN (protein, UniProt P19367 1-917, looked up) Hexokinase-1: MIAAQLLAYYFTELKDDQVKKIDKYLYAMRLSDETLIDIMTRFRKEMKNGLSRDFNPTATVKMLPTFVRSIPDGSEKGDFIALDLGGSSFRILRVQVNHEKNQNVHMESEVYDTPENIVHGSGSQLFDHVAECLGDFMEKRKIKDKKLPVGFTFSFPCQQSKIDEAILITWTKRFKASGVEGADVVKLLNKAIKKRGDYDANIVAVVNDTVGTMMTCGYDDQHCEVGLIIGTGTNACYMEELRHIDLVEGDEGRMCINTEWGAFGDDGSLEDIRTEFDREIDRGSLNPGKQLFEKMVSGMYLGELVRLILVKMAKEGLLFEGRITPELLTRGKFNTSDVSAIEKNKEGLHNAKEILTRLGVEPSDDDCVSVQHVCTIVSFRSANLVAATLGAILNRLRDNKGTPRLRTTVGVDGSLYKTHPQYSRRFHKTLRRLVPDSDVRFLLSESGSGKGAAMVTAVAYRLAEQHRQIEETLAHFHLTKDMLLEVKKRMRAEMELGLRKQTHNNAVVKMLPSFVRRTPDGTENGDFLALDLGGTNFRVLLVKIRSGKKRTVEMHNKIYAIPIEIMQGTGEELFDHIVSCISDFLDYMGIKGPRMPLGFTFSFPCQQTSLDAGILITWTKGFKATDCVGHDVVTLLRDAIKRREEFDLDVVAVVNDTVGTMMTCAYEEPTCEVGLIVGTGSNACYMEEMKNVEMVEGDQGQMCINMEWGAFGDNGCLDDIRTHYDRLVDEYSLNAGKQRYEKMISGMYLGEIVRNILIDFTKKGFLFRGQISETLKTRGIFETKFLSQIESDRLALLQVRAILQQLGLNSTCDDSILVKTVCGVVSRRAAQLCGAGMAAVVDKIRENRGLDRLNVTVGVDGTLYKLHPHFSRIMHQTVKELSPKCNVSFLLSEDGSGKGAALITAVGVRLRTEASS | 1 |
| PNPT1_HUMAN (protein, UniProt Q8TCS8 46-783, looked up) Polyribonucleotide …: AVAVDLGNRKLEISSGKLARFADGSAVVQSGDTAVMVTAVSKTKPSPSQFMPLVVDYRQKAAAAGRIPTNYLRREIGTSDKEILTSRIIDRSIRPLFPAGYFYDTQVLCNLLAVDGVNEPDVLAINGASVALSLSDIPWNGPVGAVRIGIIDGEYVVNPTRKEMSSSTLNLVVAGAPKSQIVMLEASAENILQQDFCHAIKVGVKYTQQIIQGIQQLVKETGVTKRTPQKLFTPSPEIVKYTHKLAMERLYAVFTDYEHDKVSRDEAVNKIRLDTEEQLKEKFPEADPYEIIESFNVVAKEVFRSIVLNEYKRCDGRDLTSLRNVSCEVDMFKTLHGSALFQRGQTQVLCTVTFDSLESGIKSDQVITAINGIKDKNFMLHYEFPPYATNEIGKVTGLNRRELGHGALAEKALYPVIPRDFPFTIRVTSEVLESNGSSSMASACGGSLALMDSGVPISSAVAGVAIGLVTKTDPEKGEIEDYRLLTDILGIEDYNGDMDFKIAGTNKGITALQADIKLPGIPIKIVMEAIQQASVAKKEILQIMNKTISKPRASRKENGPVVETVQVPLSKRAKFVGPGGYNLKKLQAETGVTISQVDEETFSVFAPTPSAMHEARDFITEICKDDQEQQLEFGAVYTATITEIRDTGVMVKLYPNMTAVLLHNTQLDQRKIKHPTALGLEVGQEIQVKYFGRDPADGRMRLSRKVLQSPATTVVRTLNDRSSIVMGEPISQSSSNSQ | 0 |
| SYDM_HUMAN (protein, UniProt Q6PI48 48-645, looked up) Aspartate--tRNA ligase, …: VVRTNTCGELRSSHLGQEVTLCGWIQYRRQNTFLVLRDFDGLVQVIIPQDESAASVKKILCEAPVESVVQVSGTVISRPAGQENPKMPTGEIEIKVKTAELLNACKKLPFEIKNFVKKTEALRLQYRYLDLRSFQMQYNLRLRSQMVMKMREYLCNLHGFVDIETPTLFKRTPGGAKEFLVPSREPGKFYSLPQSPQQFKQLLMVGGLDRYFQVARCYRDEGSRPDRQPEFTQIDIEMSFVDQTGIQSLIEGLLQYSWPNDKDPVVVPFPTMTFAEVLATYGTDKPDTRFGMKIIDISDVFRNTEIGFLQDALSKPHGTVKAICIPEGAKYLKRKDIESIRNFAADHFNQEILPVFLNANRNWNSPVANFIMESQRLELIRLMETQEEDVVLLTAGEHNKACSLLGKLRLECADLLETRGVVLRDPTLFSFLWVVDFPLFLPKEENPRELESAHHPFTAPHPSDIHLLYTEPKKARSQHYDLVLNGNEIGGGSIRIHNAELQRYILATLLKEDVKMLSHLLQALDYGAPPHGGIALGLDRLICLVTGSPSIRDVIAFPKSFRGHDLMSNTPDSVPPEELKPYHIRVSKPTDSKAERAH | 1.2 |
| ILF3_HUMAN (protein, UniProt Q12906 1-894, looked up) Interleukin enhancer-binding …: MRPMRIFVNDDRHVMAKHSSVYPTQEELEAVQNMVSHTERALKAVSDWIDEQEKGSSEQAESDNMDVPPEDDSKEGAGEQKTEHMTRTLRGVMRVGLVAKGLLLKGDLDLELVLLCKEKPTTALLDKVADNLAIQLAAVTEDKYEILQSVDDAAIVIKNTKEPPLSLTIHLTSPVVREEMEKVLAGETLSVNDPPDVLDRQKCLAALASLRHAKWFQARANGLKSCVIVIRVLRDLCTRVPTWGPLRGWPLELLCEKSIGTANRPMGAGEALRRVLECLASGIVMPDGSGIYDPCEKEATDAIGHLDRQQREDITQSAQHALRLAAFGQLHKVLGMDPLPSKMPKKPKNENPVDYTVQIPPSTTYAITPMKRPMEEDGEEKSPSKKKKKIQKKEEKAEPPQAMNALMRLNQLKPGLQYKLVSQTGPVHAPIFTMSVEVDGNSFEASGPSKKTAKLHVAVKVLQDMGLPTGAEGRDSSKGEDSAEETEAKPAVVAPAPVVEAVSTPSAAFPSDATAEQGPILTKHGKNPVMELNEKRRGLKYELISETGGSHDKRFVMEVEVDGQKFQGAGSNKKVAKAYAALAALEKLFPDTPLALDANKKKRAPVPVRGGPKFAAKPHNPGFGMGGPMHNEVPPPPNLRGRGRGGSIRGRGRGRGFGGANHGGYMNAGAGYGSYGYGGNSATAGYSQFYSNGGHSGNASGGGGGGGGGSSGYGSYYQGDNYNSPVPPKHAGKKQPHGGQQKPSYGSGYQSHQGQQQSYNQSPYSNYGPPQGKQKGYNHGQGSYSYSNSYNSPGGGGGSDYNYESKFNYSGSGGRSGGNSYGSGGASYNPGSHGGYGGGSGGGSSYQGKQGGYSQSNYNSPGSGQNYSGPPSSYQSSQGGYGRNADHSMNYQYR | 0.5 |
| DC1I2_HUMAN (protein, UniProt Q13409 2-638, looked up) Cytoplasmic dynein 1 …: SDKSELKAELERKKQRLAQIREEKKRKEEERKKKETDQKKEAVAPVQEESDLEKKRREAEALLQSMGLTPESPIVFSEYWVPPPMSPSSKSVSTPSEAGSQDSGDGAVGSRTLHWDTDPSVLQLHSDSDLGRGPIKLGMAKITQVDFPPREIVTYTKETQTPVMAQPKEDEEEDDDVVAPKPPIEPEEEKTLKKDEENDSKAPPHELTEEEKQQILHSEEFLSFFDHSTRIVERALSEQINIFFDYSGRDLEDKEGEIQAGAKLSLNRQFFDERWSKHRVVSCLDWSSQYPELLVASYNNNEDAPHEPDGVALVWNMKYKKTTPEYVFHCQSAVMSATFAKFHPNLVVGGTYSGQIVLWDNRSNKRTPVQRTPLSAAAHTHPVYCVNVVGTQNAHNLISISTDGKICSWSLDMLSHPQDSMELVHKQSKAVAVTSMSFPVGDVNNFVVGSEEGSVYTACRHGSKAGISEMFEGHQGPITGIHCHAAVGAVDFSHLFVTSSFDWTVKLWTTKNNKPLYSFEDNADYVYDVMWSPTHPALFACVDGMGRLDLWNLNNDTEVPTASISVEGNPALNRVRWTHSGREIAVGDSEGQIVIYDVGEQIAVPRNDEWARFGRTLAEINANRADAEEEAATRIPA | 1 |
